{
  "source": "patent US5436138A",
  "about": "“Method for protein N-myristoylation” (Washington University, priority 1993, dated 1995)",
  "key": {"[1]": {"conditions": "compared with myristic acid; cited from earlier work"}, "p60^v-src": {"tested_on": "p60^v-src", "conditions": "membrane versus cytosolic fractions; cited from earlier work"}, "[2]": {"substrate": "C[C@H](NC(=O)[C@H](C)NC(=O)[C@H](C)NC(=O)[C@H](CC(N)=O)NC(=O)CN)C(=O)N[C@@H](C)C(=O)N[C@@H](CCCNC(=N)N)C(=O)N[C@@H](CCCNC(=N)N)C(N)=O", "test": "coupled in vitro assay for NMT activity, Total E. coli NMT", "assay_type": "biochemical, S. cerevisiae", "conditions": "other: peptide substrate varied, 15 μM myristate", "method": "(§1) In vitro assay system for NMT activity. To assess the peptide and acyl-CoA substrate specificities of E. coli-derived S. cerevisiae NMT, crude lysates or partially purified enzyme preparations were added to a coupled in vitro assay system [Towler and Glaser, Proc. Natl. Acad. Sci. USA 83, 2812-2816 (1986)]. The first step of this assay involves enzymatic conversion of radiolabeled fatty acids to their CoA thioesters by Pseudomonas acyl-CoA ligase. This ligase is largely nonspecific for fatty acid substrates [Shimizu et al., Anal. Biochem. 107, 193-198 (1980)]. Octapeptide substrates and NMT were then added to produce acylpeptides. Acylpeptides were purified from the reaction mixture by trichloroacetic acid/methanol precipitation and C18 reverse phase HPLC using a linear gradient of acetonitrile in water [Towler and Glaser, Proc. Natl. Acad. Sci. USA 83, 2812-2816 (1986)].\n(§2) The peptide Km and Vmax values shown in the above Table I are averages obtained from 4- or 5-point Lineweaver-Burke plots. These plots were produced using data generated in at least three independent in vitro NMT assays. Varying concentrations of peptides were assayed with 15 μM myristate to determine peptide Km and Vmax values. […] Yeast NMT was from a 570 fold purified preparation [Towler et al., Proc. Natl. Acad. Sci. USA 84, 2708-2712 (1987)]. […] ND=not determined."}, "[3]": {"substrate": "C[C@H](NC(=O)[C@H](C)NC(=O)[C@H](CC(N)=O)NC(=O)CN)C(=O)N[C@@H](CO)C(=O)N[C@@H](C)C(=O)N[C@@H](CCCNC(=N)N)C(=O)N[C@@H](CCCNC(=N)N)C(N)=O", "test": "coupled in vitro assay for NMT activity, Total E. coli NMT", "assay_type": "biochemical, S. cerevisiae", "conditions": "other: peptide substrate varied, 15 μM myristate", "method": "as §1, §2"}, "[4]": {"substrate": "CCCCCCCCCCCCCC(=O)SCCNC(=O)CCNC(=O)[C@H](O)C(C)(C)COP(=O)(O)OP(=O)(O)OC[C@H]1O[C@@H](n2cnc3c(N)ncnc32)[C@H](O)[C@@H]1OP(=O)(O)O", "test": "cells, lysate or membranes named", "conditions": "other: fatty acyl-CoA substrate varied, 60 μM GNAAAARR"}, "[5]": {"substrate": "CCCOCCCCCCCCCC(=O)SCCNC(=O)CCNC(=O)[C@H](O)C(C)(C)COP(=O)(O)OP(=O)(O)OC[C@H]1O[C@@H](n2cnc3c(N)ncnc32)[C@H](O)[C@@H]1OP(=O)(O)O", "test": "coupled in vitro assay for NMT activity, 45 kDa E. coli NMT", "assay_type": "biochemical, S. cerevisiae", "conditions": "other: fatty acyl-CoA substrate varied, 60 μM GNAAAARR", "method": "as §1\n(§3) To obtain a homogenous preparation of the enzyme, E. coli-produced NMT was further purified by Mono S fast protein liquid chromatography (FPLC).\nas §2, with “(1987)]. Synthetic peptide substrates are represented by their conventional one letter amino acid code.” for “(1987)].”"}, "[6]": {"substrate": "CCCCCCCCCCCCCCCC(=O)SCCNC(=O)CCNC(=O)[C@H](O)C(C)(C)COP(=O)(O)OP(=O)(O)OC[C@H]1O[C@@H](n2cnc3c(N)ncnc32)[C@H](O)[C@@H]1OP(=O)(O)O", "test": "coupled in vitro assay for NMT activity, 45 kDa E. coli NMT", "assay_type": "biochemical, S. cerevisiae", "conditions": "other: fatty acyl-CoA substrate varied, 60 μM GNAAAARR", "method": "as §1, §3\nas §2, with “(1987)]. Synthetic peptide substrates are represented by their conventional one letter amino acid code.” for “(1987)].”"}, "[7]": {"substrate": "C[C@H](NC(=O)[C@H](C)NC(=O)[C@H](CC(N)=O)NC(=O)CN)C(=O)N[C@@H](CO)C(=O)N[C@@H](C)C(=O)N[C@@H](CCCNC(=N)N)C(=O)N[C@@H](CCCNC(=N)N)C(N)=O", "test": "coupled in vitro assay for NMT activity, 45 kDa E. coli NMT", "assay_type": "biochemical, S. cerevisiae", "conditions": "other: peptide substrate varied, 15 μM myristate", "method": "as §1, §3\nas §2, with “(1987)]. Synthetic peptide substrates are represented by their conventional one letter amino acid code.” for “(1987)].”"}},
  "data": [
    {"molecule": "CCCOCCCCCCCCCC(=O)O", "note": "[10-(Propoxy)decanoic acid]", "values": [
      {"measurement": "hydrophobicity", "setting": "[1]", "value": "reduced hydrophobicity (comparable to decanoic acid)"},
      {"measurement": "effect on p60v-src distribution when incorporated in vivo", "setting": "p60^v-src", "value": "significant redistribution of the protein from membrane to cytosolic fractions"}
    ]},
    {"molecule": "E. coli-derived S. cerevisiae NMT (Total E. coli NMT) (Saccharomyces cerevisiae S288C; S2A) (protein, intact 53 kDa (codon 2 Ser to Ala from cloning) plus 45 kDa truncated form) MAEEDKAKKLENLLKLLQLNNDDTSKFTQEQKKAMKDHKFWRTQPVKDFDEKVVEEGPIDKPKTPEDISDKPLPLLSSFEWCSIDVDNKKQLEDVFVLLNENYVEDRDAGFRFNYTKEFFNWALKSPGWKKDWHIGVRVKETQKLVAFISAIPVTLGVRGKQVPSVEINFLCVHKQLRSKRLTPVLIKEITRRVNKCDIWHALYTAGIVLPAPVSTCRYTHRPLNWKKLYEVDFTGLPDGHTEEDMIAENALPAKTKTAGLRKLKKEDIDQVFELFKRYQSRFELIQIFTKEEFEHNFIGEESLPLDKQVIFSYVVEQPDGKITDFFSFYSLPFTILNNTKYKDLGIGYLYYYATDADFQFKDRFDPKATKALKTRLCELIYDACILAKNANMDVFNALTSQDNTLFLDDLKFGPGDGFLNFYLFNYRAKPITGGLNPDNSNDIKRRSNVGVVML", "values": [
      {"measurement": "Km", "setting": "[2]", "value": 65.8, "unit": "µM"},
      {"measurement": "Km", "setting": "[3]", "value": 0.103, "unit": "µM"}
    ]},
    {"molecule": "45 kDa E. coli NMT (NMT missing the NH2-terminal 39 residues) (Saccharomyces cerevisiae S288C) (protein, S2A lies in the removed part) FWRTQPVKDFDEKVVEEGPIDKPKTPEDISDKPLPLLSSFEWCSIDVDNKKQLEDVFVLLNENYVEDRDAGFRFNYTKEFFNWALKSPGWKKDWHIGVRVKETQKLVAFISAIPVTLGVRGKQVPSVEINFLCVHKQLRSKRLTPVLIKEITRRVNKCDIWHALYTAGIVLPAPVSTCRYTHRPLNWKKLYEVDFTGLPDGHTEEDMIAENALPAKTKTAGLRKLKKEDIDQVFELFKRYQSRFELIQIFTKEEFEHNFIGEESLPLDKQVIFSYVVEQPDGKITDFFSFYSLPFTILNNTKYKDLGIGYLYYYATDADFQFKDRFDPKATKALKTRLCELIYDACILAKNANMDVFNALTSQDNTLFLDDLKFGPGDGFLNFYLFNYRAKPITGGLNPDNSNDIKRRSNVGVVML", "values": [
      {"measurement": "Km", "setting": "[4]", "value": 0.36, "unit": "µM"},
      {"measurement": "Km", "setting": "[5]", "value": 1.2, "unit": "µM"},
      {"measurement": "Km", "setting": "[6]", "value": 0.96, "unit": "µM"},
      {"measurement": "Km", "setting": "[7]", "value": 0.38, "unit": "µM"}
    ]}
  ]
}
